A protein production outcome set (Wang et al. 2014)

experiment: label from the status in PepcDB records
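Further: failed if final PepcDB status was selected cloned or expressed and not failed if soluble or beyond.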

| Sequence | protein production |
| --- | --- |
| MAIRRCYIAQNPKSSCRFNCVRERFEDLRGVPCLVYEGETRDWINAALFLEDENESEDRKRFVLHTSHSALLYMEYDLTSNADCTVLELARCTDSSILYYTKLHGSSFNKLAIISGNAFGELLVWQTQFPTESDPKSVMKTYPLLLRIEAHNGVIHSIEFDLQSQLLVTTSDDRSVKFWNIQKSGDWTTAEIKPMFSCYGHSSRVMCVVILKIDDRTFVASGGEDSYVCIWSSSGELILKRRQQFGAPIWRLGFSQDAEILYSTSSTGNLVGQNLKEVLNRPKIESTILSSLGDANEFVRNLKFVNNEIIVGLSSLNRLYYTRISPDSSHENKWLMVNDFPSYKRTVLEVFDDIIATCGHRRITLHRDRYLVSDNLGYCLLLQTHQLHIESHIALFNNREPWITAALLISEQYLLLGNREGHVMLYCRSSASDDFQLKDSIRYLHGKMGSNFFKLLSLNADNAHVMSGGHEAFLKYLSVRFSDSTLRVSQREGIPLAWVEASPSDDLILGFNDNHIVAWSRRNDILLQLACGGGHRCWDFRLSDGDSQLSIAYVKQKRVYFYRNSLYNAVDNRLKDIEPNNWHVRNCNTLRLITPRNQSDPFILSAGDDNIIKVTQVTNDSLSQRAEMHSHISTVRSLQAIPYKSNGGDSSTWLVFSVGGRSQLCISQLSIDASNKCWISEISSHTLHNVAASKTSTIEARLMAIDVVQHSDGDLFSIYVAGGDGNISHYIWELETPNQLDLKHFVDIQRCPLGIQWIASKGMLLVSTTNGEVYGFDRTLETTYFQLQLHVTGINTIDIYVDRHLLHILSGGDDESIKYTVLNLNNNNVEQKIEYLGLHNAQVNALAIHCPTKSVAASELFAYTCSIDRQIYRIDLSTHKYKRVGYTCIADVKGMLLDEHQRMYFYGCGLQTMSISNIL | failed |
| MAIRSALMNVMLIAVKKAAKGLVRDFGELENLQVSRKGPSDFVSNADLKAEKILKAELRKARPAYSFLMEESGAEDGADTSRRWIVDPLDGTTNFLHGIPHFAISVALEEKGEIVAGVIYNPILDELYTAEKGNGAFVNDRRLRVSGRRDLAESLFATGIPFQGKGGHARFLGQLAKVMAKTSGVRRIGAASLDLAYVAAGRVDGYWEEGLHPWDCAAGILLVKEAGGYVTTLDGKPDPLRQGSLLAANPLMHPLLGELLAEE | failed |
| MAISIRTMAALSMVGLRGKRDVQQYSEWISQPCRPAMKGFRPGIGPTLVVLLLLPVLVALGFWQLGRGEQKRQLLASYAERRAAEPVALFELLASEDPAFRRVRLHGHFDADHSLLLDNRLHDGKVGVELLQPFLDQASGRWLLVNRGWLPWPDRRTPPVFSTPQQSLSLDAWVYVSPGAAFQLHADPSGASWPRLITAVGPQALWAELGRSGFDHEVRLESGPGAYLTEWPVVAMGPEKHQAYAVQWFAMALALFALYLYFGWHNTREKRHGNGHESTQHL | failed |
| MAIVGTILFAFYSVAIAAAWFFFGQNQTILAIAIVGSVVLVGVQYKVGKWMALRSVGAEDMDEQEFPRIHRRVESLSRDMGIKKPTLKVANMGVPNAFAVGRKGNGTVVVSRELIDILEHEELDGVLAHELSHIANRDVVTMQLGQGIASIVGIVAQYIVLFSGDNDLADFFLAIVVGNLVQFLVTLFVLAISRYREYVADADARRAIGTGEPLARALEKISQGNEQAAQQQRQRTSRGRGRRQRGQRNDDGLDQQVSALCISSPDTSVLQKLVSTHPPTEKRIQRLRS | failed |
| MAKAVASQEVANMLNDWYILMKKRDISGSIEMKDDIDKAIEKMEEDHDVLLYYQMLDFRLRLLLEDISQSSTEKLEAISFKDKDPKSTDDKLNYYFYLFKGIYEDYKQNHTEALNFFRIAEKRLSVIQNEIEKAEFHYKIGVLYYNLKATWLSIHHINIASGIFQGYDGYAKRVINCKMLIGLNYIDQFKFAESEVLLKEAIEKTEKIGDQYLLPYTYYNMGFLKSKEDKHEEALKYYNKAFAIKDFETKAKYAYLLCVYENTRSLFKTNDPDQAFKWIDTGFKKAQEVNSEIFELKFKTLYTLHSDCQNKLEVIKDFIHQLEDKKAWVDLEELLMDVANYYRENKLYEEAIYFYIKTDKASKLAGRGGE | failed |
| MAKEGEHSGAKEVKLTKPKISLSDLTFVIYVTTREKLSSSTISCEEIPLKKCGAELECGSNDRFHIQVENLSHMGISKSRMAGVKIECEVIYKEDSEDEAVVRIVNAERPLGTNFGWLNNDLLAPLAHRGLTAEIQLSFNSELLDKIDLQIFHRGEGRYFSQDDTLGYLQCFFPSKI | failed |
| MAKGDVITLNFETFVDSDTQVKVTRLTPTDVICHRNYFYQKCFTQDGKKLLFAGDFDGNRNYYLLNLETQQAVQLTEGKGDNTFGGFISTDERAFFYVKNELNLMKVDLETLEEQVIYTVDEEWKGYGTWVANSDCTKLVGIEILKRDWQPLTSWEKFAEFYHTNPTCRLIKVDIETGELEVIHQDTAWLGHPIYRPFDDSTVGFCHEGPHDLVDARMWLVNEDGSNVRKIKEHAEGESCTHEFWIPDGSAMAYVSYFKGQTDRVIYKANPETLENEEVMVMPPCSHLMSNFDGSLMVGDGCDAPVDVADADSYNIENDPFLYVLNTKAKSAQKLCKHSTSWDVLDGDRQITHPHPSFTPNDDGVLFTSDFEGVPAIYIADVPESYKHLEHHHHHH | not failed |
| MAKHEQILVLDPPSDLKFKGPFTDVVTTNLKLQNPSDRKVCFKVKTTAPRRYCVRPNSGIIDPGSIVTVSVMLQPFDYDPNEKSKHKFMVQTIFAPPNISDMEAVWKEAKPDELMDSKLRCVFEMPNENDKLND | not failed |
| MAKHRLDALLVERGLCPSRQQAQRLIRAGEVRVAQAIVDKPGSLVAEDAVIEVAAKPPYVSRGGEKLAKALATFPIALSDRICLDAGISTGGFTDCLLQAGASKVYGIDVGYGQVDWKIRTDPRVLLRERTNIRNLQPTDLYGSDDVWPDLAVADLSFISLTKVLLTLGQLLRSPRELILLVKPQFEVGREKVGKGGVVRDRKDHVTAIAQVLESAQGLGWHGQGLTWSPLLGPAGNVEYLLWLSEAETTWAGDRAAIEALTTEAIATLRAGLEHHHHHH | not failed |
| MAKIHVLEKHVAELIAAGEVVERPSSVIKELVENSIDAGATTISVEIQRGGIAYMRVTDNGGGIAREDVPKAFLRNATSKVESAEDLDGIGTLGFRGEALASICAVSRVTLLTRTEEELAGTSYQIEGGEELALEDAGCAKGCTIVVRDLFYNTPARMKFLKKDVSEANAVAGVMDRAALSHPEISFRFVRDHKETLSTPGDRQLRSCIYAVYGKDFTAGLIPVDYAYNGIKVRGFISKPSAARPNRSMQHFFINGRFVKSKTAMVALEQAFKGSIMAGKFPSCVLHLSVPWEAVDVNVHPSKIEVRFLNEKPIFDAVYHGVKSALLSGDQRKEMILPRPKLDPPASQPEQIRLAAKPAIGSAAQETAEKEARLLTSQTEQAPNSSLGAYEKVVSSSAGRLAQPQQAPLGKAPDKAFPQTASGPAVAGTSHIGENAADKKPPSSLPGIGAAGRIPVPYEENEPEIYLPVKRQTAIPAVRDFISSPFSFSDEASKPKAAGEAPGDTGFEAAAADRGRKAEPKAQELSEEAAGEKPESSRQAAAAEPPREEAGLQPFGEKRQRLVGEAFRTYLIIEYGDDELLLIDKHAAHERILYEKLKKESGKSCAQYLLEPIPVTLDKNEYAAVLENQKLFWEAGFEVEDFGGGSVLVRSAPLSLEQEDIASSLMEIAGHLLENKTDMSTEKLDWLYHNIACRAAVKAGQITSDQELIALAVALRENPEIRYCPHGRPVSITLKKREIEKQFGRIQ | failed |
| MAKITVGTENQAPIEIYYEDHGTGKPVVLIHGWPLSGRSWEYQVPALVEAGYRVITYDRRGFGKSSQPWEGYEYDTFTSDLHQLLEQLELQNVTLVGFSMGGGEVARYISTYGTDRIEKVVFAGAVPPYLYKSEDHPEGALDDATIETFKSGVINDRLAFLDEFTKGFFAAGDRTDLVSESFRLYNWDIAAGASPKGTLDCITAFSKTDFRKDLEKFNIPTLIIHGDSDATVPFEYSGKLTHEAIPNSKVALIKGGPHGLNATHAKEFNEALLLFLKD | not failed |
| MAKIVQLPDDLSNKIAAGEVVERPASVVKELVENAIDANSSVIEIDVEEAGLASIKVLDDGEGMDAEDCRTAFLRHATSKIKDENDLFRVRTLGFRGEALPSIASVSHLSIKTSTGEGAGTHLTLQGGRIISEQKAPSRRGTEITVTNLFFNTPARLKYMKTIHTELGNITDVVNRIALAHPEVSIRLRHQGKTLLQTNGNGDVRHVLAAIYGTAVAKKMLPLEARSLDFEVKGYIALPEITRASRNYMSSVVNGRYIKNFPLVKAIHEGYHTLLPIGRHPITFIEINMDPLLVDVNVHPSKLEVRLSKETELHELIRDAIKDVFKQQQLIPSVQVPKKTAPLINKPEQQKLDFDQVREPAPLSDSDVEREYKPEPSFSAMKLSSLVKDPPPSAPVEREENVMQDTEPEWPGAEEYTPEAAPAVQAEPEQAGENVQDEETPKERVPIMYPIGQMHGTYILAQNENGLYIIDQHAAQERIKYEYFREKVGEVESEVQDLLVPLTFHYSKNEALTIDQHLDDLAKVGVFLESFGAGSYIVRCHPTWFPKGEETTIIEDIIQQVLDDRTIDIKKLREEAAIMMSCKGSIKANHHLRDDEITALLDELRRTSDPFTCPHGRPIIIHYSTYEMEKMFKRVM | failed |
| MAKKKKEILFCDYYEDWVETYKVGAIEDVTLNKYYVAARQLRDICPKLLMSDFSRKDYQLIMNEYGKTHEKQTAKDFHHHIKAAILDAYHDGLLKSDPTYRAVIKGKEPGKKKLEHHHHHH | not failed |
| MAKKRSKLEIIQAILEACKSGSPKTRIMYGANLSYALTGRYIKMLMDLEIIRQEGKQYMLTKKGEELLEDIRKFNEMRKNMDQLKEKINSVLSIRQ | not failed |
| MAKKTLILYYSWSGETKKMAEKINSEIKDSELKEVKVSEGTFDADMYKTSDIALDQIQGNKDFPEIQLDNIDYNNYDLILIGSPVWSGYPATPIKTLLDQMKNYRGEVASFFTSAGTNHKAYVSHFNEWADGLNVIGVARDDSEVDKWSK | not failed |
| MAKKTMGIHHITAIVGHPQENTDFYAGVLGLRLVKQTVNFDDPGTYHLYFGNEGGKPGTIITFFPWAGARQGVIGDGQVGVTSYVVPKGAMAFWEKRLEKFNVPYTKIERFGEQYVEFDDPHGLHLEIVEREEGEANTWTFGEVTPDVAIKGFGGATLLSEQPDKTADLLENIMGLERVGKEGDFVRYRSAGDIGNVIDLKLTPIGRGQMGAGTVHHIAWRANDDEDQLDWQRYIASHGYGVTPVRDRNYFNAIYFREHGEILFEIATDPPGFAHDETQETMGEKLMLPVQYEPHRTQIEQGLLPFEVRELD | not failed |
| MAKKVAVLAVNPVNGCGLFQYLEAFFENGISYKVFAVSDTKEIKTNSGMVLIVDDVIANLKGHEDEFDALVFSCGDAVPVFQQYANQPYNVDLMEVIKTFGEKGKMMIGHCAGAMMFDFTGITKGKKVAVHPLAKPAIQNGIATDEKSEIDGNFFTAQDENTIWTMLPKVIEALK | not failed |
| MAKLSPTTRIFALVIKEILTLFKDPKGRIVLIAPPLLQLLIFSFAATMEIKNISIGILNQDFGKHGYEVIQRFIGSPTFSKVFFIQKQSDIKPIIDNQEAMVVMTIPQDFSRKIESNSQANIQLILDGRRSNATQIVNGYISSIIENYNQEIQKTHGAIMTPPVMVTRSWFNENLLYLWFTVPSLVCILSMLISLVVTALSVARERELGTFDQLLVSPLTPYEILIGKTIPAIIIGLAEGLLMWVAAVWLFDVPFYGSPLLMVYILFIFIMSTVGVGLFISSMCKTQQQAILGVFIYMVPVVTLSGYASPVENMPEWLQDLTWFNPLKFTLIAVIGIFLKGMSALEVFITTWPLLLVGAVTLFIAGWFFKQRME | failed |
| MAKQDVIELEGTVLDTLPNAMFKVELENGHEILAHVSGKIRMNYIRILPGDKVTVEMSPYDLTRGRITYRYK | failed |
| MAKRCALTFKGPMIGNHVSHANNKNKRRLLPNLRSIKIQLDDGTTKRIKVAASTLRTMRKGALEHHHHHH | not failed |
